According to patent US20250333541A1, “ANTIBODY, AND DRUG CONJUGATE AND USE THEREOF” (EVOPOINT BIOSCIENCES CO., LTD., priority 2022, published 2025):

T1: cynomolgus monkey TF-His (cynomolgus monkey, UniProt A0A2K5VX02 33-253)
T1 construct: range 33-252; Recombinant extracellular segment expressed in HEK293-EBNA cells and purified on a nickel column; also called c.TF-His; c; TF-his; not shown: His tag from vector pTT5-His
T1 sequence: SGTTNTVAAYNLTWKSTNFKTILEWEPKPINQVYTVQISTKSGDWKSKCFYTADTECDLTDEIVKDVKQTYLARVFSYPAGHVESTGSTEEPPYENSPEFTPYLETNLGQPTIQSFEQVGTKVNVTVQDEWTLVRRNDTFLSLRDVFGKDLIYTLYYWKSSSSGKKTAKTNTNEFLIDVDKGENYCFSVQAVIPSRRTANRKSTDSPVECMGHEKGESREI


What was measured:
[1] = biological target: T2, tissue factor (TF) on the surface of TF-positive tumor cells (human, UniProt P13726 33-295); experiment: cell-based or functional assay
[2] = biological target: T2, tissue factor (TF) on the surface of …; experiment: cell ELISA on fixed NCI-H358 cells
Method: TF antigen-positive cells (MDA-MB-231 or NCI-H358 cells) were seeded into a 96-well plate at 5×10⁴ cells/well one day prior to the experiment. On the day of the experiment, the culture supernatant was removed, each well was washed once with 300 μL of PBS, and 100 μL of 4% paraformaldehyde was added to each well for immobilization at room temperature for 20 min. The paraformaldehyde was removed, and each well was washed twice with 300 μL of PBS, and 100 μL of 2% BSA in PBS was added to each well for blocking at 37° C. for 2 h. After the blocking was completed, 30 μL of the test sample (hybridoma supernatant or purified antibody) was added to each well and the plate was incubated at 37° C. for 2 h. The liquid was removed, and each well was washed three times with 300 μL of PBST. 100 μL of HRP-conjugated secondary antibody in 2% BSA was added to each well, and the plate was incubated at 37° C. for 1 h. […] The secondary antibody was removed, each well was washed five times with 300 μL of PBST, and 100 μL of TMB substrate (Huzhou InnoReagents Co., Ltd., TMB-S-004) was added to each well for color development for 5-20 min. 50 μL of 2 N HCl was added to each well to stop the reaction, and OD450 nm values were read using a microplate reader (manufacturer: MD, model: SpectraMax) to determine the binding of the samples to TF-positive cells.
The assay was performed as described in the general methods. Briefly, TF antigen-positive NCI-H358 cells were digested with trypsin, collected, seeded into a 96-well plate at 5×10⁴ cells/well and incubated overnight, and then immobilized with 4% paraformaldehyde. After the paraformaldehyde was removed and the cells were washed with PBS, the plate was blocked with 2% BSA at 37° C. for 2 h. Each of the antibodies obtained by the gradient dilution (starting at 10 μg/mL, 3-fold graded dilution, 11 concentration points) was added. The plate was incubated at 37° C. for 2 h.

[3] = biological target: T2, tissue factor (TF) on the surface of …; experiment: cell-based or functional assay; remark: listed apart in the source
[4] = biological target: T2, tissue factor (TF) on the surface of …; experiment: flow cytometry on KYSE520 cells
Method: (§1) A TF low/medium-expressing cell line NCI-H358 (source: Nanjing Cobioer, CBP60136) and a TF high-expressing cell line KYSE520 (source: Nanjing Cobioer, CBP60658) were digested with trypsin, collected by centrifugation, and washed three times with pre-cooled PBS. The cells were resuspended in 1% BSA and seeded into a 96-well sharp-bottom plate at 3×10⁵ cells/well. Each of the antibodies obtained by the gradient dilution was added, and the plate was incubated at 4° C. for 1 h. The cells were washed three times with pre-cooled PBS. 1 μL of anti-human fluorescent secondary antibody (APC anti-human IgG Fc Antibody, Biolegend, 410712) was added to each well, and the plate was incubated at 4° C. for 0.5 h. The cells were washed three times with pre-cooled PBS, resuspended, and detected by a flow cytometer (Sony, LE-SA3800GA). The data were imported into GraphPad software for curve fitting.

[5] = biological target: T2, tissue factor (TF) on the surface of …; experiment: flow cytometry on NCI-H358 cells
Method: as §1

cynomolgus monkey TF-His [6] = biological target: T1, cynomolgus monkey TF-His; experiment: ELISA, plate coated with c.TF-His
Method: (§2) The ELISA plate was coated overnight with TF antigen (h.TF-His or c.TF-His antigen) in 50 mM carbonate coating buffer (CBS coating solution) at a coating concentration of 1 μg/mL in a volume of 100 μL at 4° C. The next day, the coating solution was removed, each well was washed once with 300 μL of PBS, and 100 μL of 2% BSA (Biotopped, A6020) in PBS was added to each well for blocking at 37° C. for 2 h. The test sample was subjected to a gradient dilution with 2% BSA in PBS to establish 11 concentration points. 100 μL of each of the samples obtained by the gradient dilution was added to the plate, and the plate was incubated at 37° C. for 2 h. The supernatant was removed, and each well was washed three times with 300 μL of PBST. 100 μL of HRP-conjugated secondary antibody in 2% BSA was added to each well, and the plate was incubated at 37° C. for 1 h. […] At the end of the incubation, the secondary antibody was removed, each well was washed five times with 300 μL of PBST, and 100 μL of TMB substrate (Huzhou InnoReagents Co., Ltd., TMB-S-004) was added to each well for color development for 5-20 min. 50 μL of 2 N HCl was added to each well to stop the reaction, and OD450 nm values were read using a microplate reader (manufacturer: MD, model: SpectraMax) and imported into GraphPad software for fitting and plotting to determine the binding of the samples to TF antigenic proteins.
(§3) The assay was performed as described in the general methods. Briefly, an ELISA plate coated with a human TF-his protein or a cynomolgus monkey TF-his protein was blocked with 2% BSA at 37° C. for 2 h, and each of the antibodies obtained by the gradient dilution (starting at 10 μg/mL, 3-fold graded dilution, 11 concentration points) was added. The plate was incubated at 37° C. for 2 h.

[7] = biological target: T2, tissue factor (TF) on the surface of …; experiment: cell-based or functional assay; remark: listed apart in the source
human TF-His [8] = biological target: T3, human TF-His (human, UniProt P13726 33-251); experiment: antigenic protein-based ELISA, before conjugation (TF antigen species not stated)
T3 construct: range 33-251; Recombinant extracellular segment expressed in HEK293-EBNA cells and purified on a nickel column; also called h.TF-His; h; TF-his; not shown: His tag from vector pTT5-His
Method: as §2

human TF-His [9] = biological target: T3, human TF-His; experiment: BLI (ForteBio Octet), antibody on ProA sensor, TF-His as analyte
Method: (§4) The dynamic affinity of the humanized antibodies was determined by ForteBio. The experimental procedures were as follows: a ProA sensor (18-5010, Octet) was taken out and pre-wetted with a PBST diluent (pH 7.4) for 10 min. The antibodies to be immobilized were diluted to 5 μg/mL. […] The program was set up, the sensor plate and sample plate were put in, then the program started. The sensor was regenerated with 20 mM glycine solution (pH 1.7). The data were analyzed using Octet analysis software to derive a result graph.

cynomolgus monkey TF-His [10] = biological target: T1, cynomolgus monkey TF-His; experiment: as above
Method: as §4

human TF-His [11] = biological target: T3, human TF-His; experiment: ELISA, plate coated with h.TF-His
Method: as §2, §3

human TF-His [12] = biological target: T3, human TF-His; experiment: antigenic protein-based ELISA, after conjugation with B81 (TF antigen species not stated)
Method: as §2

Row | Binder | Endocytosis rate (%) on NCI-H358 cells, 2 h [1] [%] | Endocytosis rate (%) on NCI-H358 cells, 4 h [1] [%] | EC50 [2] [ng/mL] | IC50 (ng/mL), inhibition of FVIIa-induced IL-8 release by MDA-MB-231 cells [3] [ng/mL] | Maximum inhibition rate (%), FVIIa-induced IL-8 release by MDA-MB-231 cells [3] [%] | EC50 [4] [ng/mL] | EC50 [5] [ng/mL] | EC50 (cynomolgus monkey TF-His [6]) [ng/mL] | coagulation time V50 (s), MDA-MB-231 cells + human plasma, 2 mM Ca2+, 50 µg/mL antibody [7] [s] | coagulation time V50 (s), MDA-MB-231 cells + human plasma, 5 mM Ca2+, 20 µg/mL antibody [7] [s] | EC50 (human TF-His [8]) [ng/mL] | Kd (human TF-His [9]) [nM] | koff (human TF-His [9]) [s⁻¹] | kon (human TF-His [9]) [M⁻¹ s⁻¹] | Kd (cynomolgus monkey TF-His [10]) [nM] | koff (cynomolgus monkey TF-His [10]) [s⁻¹] | kon (cynomolgus monkey TF-His [10]) [M⁻¹ s⁻¹] | EC50 (human TF-His [11]) [ng/mL] | EC50 (human TF-His [12]) [ng/mL]
1 | 2B12B10-hz1 (antibody, human IgG1, kappa, V domains shown, Humanized IgG1 kappa) VH: EVQLVESGGGLVQPGGSLRLSCAASGFAFSDSGMHWVRQAPGKGLEWVAYISRDSNTIYYADSVKGRFTISRDNAKNSLYLQMNSLRAEDTAVYYCGRRYYGDYFDYWGQGTLVTVSS VL: DIVLTQSPATLSLSPGERATLSCRASQRVTNYLHWYQQKPGQSPRLLIKYASQSISGIPARFSGSGSGTDFTLTISSLEPEDFAVYFCQQSYNWPLTFGQGTKVEIKR | 34.3 | 49.6 | 3.88 | 128 | 94.1 | 140 | 187 | 13.6 | 882 | 24.2 | 6.65 | 13.8 | 0.00289 | 209000 | 33.8 | 0.0116 | 344000 | 6.72 | –
2 | 30G11B7-hz1 (antibody, human IgG1, kappa, V domains shown, Humanized IgG1 kappa) VH: EVQLVESGGGLVKPGGSLRLSCAASGFTFSDYGMFWVRQAPGKGLEWVAYISRGSTTIYYADSVKGRFTISRDNAKNSLYLQMNSLRAEDTAVYFCTRRYYGDYFDYWGQGTLVTVSS VL: EIVLTQSPDFQSVTPKEKVTITCRASQSISNYLHWYQQKPDQSPKLLIKYASQSISGVPSRFSGSGSGTDFTLTINSLEAEDAATYFCQQSYNWPLTFGQGTKVEIKR | 19.8 | 46.1 | 4.73 | 129 | 100 | 138 | 145 | 20.8 | 1450 | 29.2 | 7.68 | 25.8 | 0.00506 | 197000 | 146 | 0.053 | 364000 | 7.91 | –
3 | 2B12B10-hz1-B81 (antibody, human IgG1, kappa, V domains shown, drug-linker DL-01 (B81) on cysteine sulfhydryl group; prepared by the TF-ADC (DAR8) method (1 toxin molecule per light chain); drug-linker DL-01 (B81) on cysteine sulfhydryl groups; prepared by the TF-ADC (DAR8) method (3 toxin molecules per heavy chain), also called 2B12B10-B81) VH: EVQLVESGGGLVQPGGSLRLSCAASGFAFSDSGMHWVRQAPGKGLEWVAYISRDSNTIYYADSVKGRFTISRDNAKNSLYLQMNSLRAEDTAVYYCGRRYYGDYFDYWGQGTLVTVSS VL: DIVLTQSPATLSLSPGERATLSCRASQRVTNYLHWYQQKPGQSPRLLIKYASQSISGIPARFSGSGSGTDFTLTISSLEPEDFAVYFCQQSYNWPLTFGQGTKVEIKR | – | – | – | – | – | – | – | – | – | – | – | – | – | – | – | – | – | – | 3.76
4 | 30G11B7-hz1-B81 (antibody, human IgG1, kappa, V domains shown, drug-linker DL-01 (B81) on cysteine sulfhydryl group; prepared by the TF-ADC (DAR8) method (1 toxin molecule per light chain); drug-linker DL-01 (B81) on cysteine sulfhydryl groups; prepared by the TF-ADC (DAR8) method (3 toxin molecules per heavy chain)) VH: EVQLVESGGGLVKPGGSLRLSCAASGFTFSDYGMFWVRQAPGKGLEWVAYISRGSTTIYYADSVKGRFTISRDNAKNSLYLQMNSLRAEDTAVYFCTRRYYGDYFDYWGQGTLVTVSS VL: EIVLTQSPDFQSVTPKEKVTITCRASQSISNYLHWYQQKPDQSPKLLIKYASQSISGVPSRFSGSGSGTDFTLTINSLEAEDAATYFCQQSYNWPLTFGQGTKVEIKR | – | – | – | – | – | – | – | – | – | – | – | – | – | – | – | – | – | – | 7.75
5 | 27H8H3-hz1-B81 (antibody, human IgG1, kappa, V domains shown, drug-linker DL-01 (B81) on cysteine sulfhydryl group; prepared by the TF-ADC (DAR8) method (1 toxin molecule per light chain); drug-linker DL-01 (B81) on cysteine sulfhydryl groups; prepared by the TF-ADC (DAR8) method (3 toxin molecules per heavy chain)) VH: QVQLVQSGAEVKKPGASVKVSCKASGYTFTTYWMHWVRQAPGQGLEWMGMIDPSDSYTSYAQKFQGRVTLTVDTSTSTAYMELSSLRSEDTAVYYCTRGSGPGLFAYWGQGTLVTVSS VL: DIQETQSPSSLSASVGDRVTITCRASQGISNYLNWYQQKPGKAPKLLIYHTSRLHSGVPSRFSGSVSGTDFTLTISSLQPEDFATYFCQQGNTLPYTFGQGTKVEIKR | – | – | – | – | – | – | – | – | – | – | – | – | – | – | – | – | – | – | 3.43
6 | 22F11H5-hz1-B81 (antibody, human IgG1, kappa, V domains shown, drug-linker DL-01 (B81) on cysteine sulfhydryl group; prepared by the TF-ADC (DAR8) method (1 toxin molecule per light chain); drug-linker DL-01 (B81) on cysteine sulfhydryl groups; prepared by the TF-ADC (DAR8) method (3 toxin molecules per heavy chain)) VH: QVQLVQSGAEVKQPGASVKVSCKASGYTFTTYWMHWVRQAPGQGLEWMGMIDPSDSYTTYAQKFQGRVTLTVDTSTSTAYMELSSLRSEDTAVYYCARGSGPGLFAYWGQGTLVTVSS VL: DIQETQSPSSLSASVGDRVTITCRASQDIRNYLNWYQQKPGKAPKLLIYHTSRLQSGVPSRFSGSGSGTDYTLTISSLQPEDFATYYCQQGNMPPYTFGQGTKVEIKR | – | – | – | – | – | – | – | – | – | – | – | – | – | – | – | – | – | – | 8.83
